The values that follow come from article PMC11195132.

Assay [1] has as its target tSH2 domain of SYK (residues M6-N269) fused to an N-terminal 6xHis tag (UniProt P43405). Kind of assay: FRET or BRET. A general note: Bioluminescence resonance energy transfer reports proximity on the nanometre scale.
Assay [2] shares this target. Kind of assay: FRET or BRET. The source holds these as a separate data set.

Read-outs that look alike come from different tables or passages of the source.

One may read the IC50 as the concentration needed to halve the response being measured. The low end stands for higher potency, the high end for lower potency. For “unlabeled FCER1G-phospho-peptide (from UniProt P30273 54-82)”, the 50% inhibitory concentration (IC50) in assay [1] and in assay [2] was 5 nM in each case.
